Reference: patent publication US20080267882A1, “Imaging compounds, methods of making imaging compounds, methods of imaging, therapeutic compounds, methods of making therapeutic compounds, and methods of therapy” (Stanford University, priority 2007, published 2008)
Read-outs that look alike come from different tables or passages of the source.

Key:
integrin αvβ3 = molecular target: T1, integrin αvβ3 (Homo sapiens, UniProt P05106+P06756); assay: competitive cell binding assay using ^125I-echistatin on U87MG cells; details: for IC50: n=3, read-out: IC50 (inhibition of ^125I-echistatin binding to U87MG cells)
T1 construct: evaluated using U87MG cells (integrin αvβ3-positive); endogenous in cells; host or cells: U87MG human glioblastoma cells (ATCC)
Protocol: Experiments were performed on U87MG human glioblastoma cells with triplicate samples as previously reported.
In vitro integrin αvβ3-binding affinities and specificities of RGD4, PRGD4 and FPRGD4 were assessed via displacement cell binding assays using ^125I-echistatin as the integrin αvβ3-specific radioligand. Experiments were performed on U87MG human glioblastoma cells by the method previously described (J Nucl Med. 2005;46:1707-1718 J Nucl Med. 2006;47:1172-1180, which is incorporated herein by reference for the corresponding discussion). […] Experiments were performed with triplicate samples.
Experiments were performed with triplicate samples.
In vitro integrin-binding affinity and specificity of RGD multimers and DOTA-RGD multimers were assessed via competitive cell binding assays using ^125I-echistatin as the integrin αvβ3-specific radioligand (J Nucl Med. 2005;46:1707-1718, which is incorporated herein by reference for the corresponding discussion). […] Experiments were performed with triplicate samples.

U87MG cells = assay: cell adhesion assay on vitronectin coated plates; assay type: cell-based, human; details: for IC50: vitronectin coated plates, n=4, read-out: calculated IC50 (inhibition of U87MG cell adhesion)
Protocol: Ninety-six well plates were coated with 2 μg/mL of fibronectin or vitronectin (Sigma-Aldrich) in PBS at 4° C. overnight and treated with 2% bovine serum albumin (BSA) for 1 h at 37° C. U87MG cells (human glioblastoma, ATCC; 2×10^5 cells/mL) with various concentrations of RGD multimers (50 nM, 200 nM, 800 nM) in 100 μL serum-free Dulbecco's modified Eagle's medium (DMEM) containing 0.1% BSA were incubated for 20 min at 37° C. The resulting mixture was added to the plates and incubated for 1 h at 37° C. Plates treated with BSA only were used as negative control. After removal of the medium by aspiration, 0.04% crystal violet solution was added and incubated for 10 min at room temperature. The wells were washed three times with PBS and 20 μL Triton X-100 were added for permeabilization. Distilled water (80 μL) was then added and the number of adherent cells was assessed with a microplate reader (Tecan; measurement wavelength: 550 nm; reference wavelength: 630 nm).

[1] = tested on: MDA-MB-435 tumor-bearing mice; assay: biodistribution of ^3H-PTX and ^3H-RGD2−PTX in MDA-MB-435 tumor-bearing mice; assay type: in vivo, mouse
Protocol: (§1) All animal experiments were performed in compliance with the guidelines for the care and use of research animals established by the Stanford University's Animal Studies Committee. Female athymic nude mice (nu/nu) were obtained from Harlan (Indianapolis, Ind.) at 6-8 weeks of age and were kept under sterile conditions. The MDA-MB-435 cells were harvested and suspended in sterile PBS at a concentration of 5×10^7 cells/mL. Viable cells (5×10^6) in PBS (100 μL) were injected orthotopically in the right mammary fat pad. […] Tumor growth was followed by caliper measurements of perpendicular measures of the tumor. The tumor volume was estimated by the formula: tumor volume=a×(b^2)/2, where a and b are the tumor length and width respectively in mm.
(§2) The animals were euthanized at 4, 24 and 48 h post injection and major organs and tissues were collected correspondingly. Approximately 100 mg of the tissue was added to glass scintillation vials containing 1 mL of tissue solubilizer SoluEne®-350 (Perkin-Elmer, Waltham, Mass.). These samples were digested at 55° C. for overnight followed by bleaching to obtain the decolorized samples. Chemiluminescence was reduced by the addition of glacial acetic acid. Hionic-Fluor liquid scintillation cocktail (Perkin-Elmer) was added to all samples, which were then counted with a Tri-Carb 2800TR liquid scintillation Analyzer (Perkin-Elmer).

[2] = as above; assay type: in vivo, mouse; details: female, athymic nude (nu/nu), mouse, iv, 2.9 umol/kg, total radioactivity
Protocol: as §1, §2

[3] = IC50 of RGD monomer divided by IC50 of RGD multimer
[4] = tumor/kidney, read-out: tumor/kidney ratio
[5] = tumor/liver, read-out: tumor/liver ratio
[6] = tumor/muscle, read-out: tumor/muscle ratio

Q: With N=C(N)NCCC[C@@H]1NC(=O)[C@H](CCCCNC(=O)CC[C@H](NC(=O)CC[C@H](N)C(=O)N[C@@H](CCC(=O)NCCCC[C@@H]2NC(=O)[C@@H](Cc3ccc(O)cc3)NC(=O)[C@H](CC(=O)O)NC(=O)CNC(=O)[C@H](CCCNC(=N)N)NC2=O)C(=O)NCCCC[C@@H]2NC(=O)[C@@H](Cc3ccc(O)cc3)NC(=O)[C@H](CC(=O)O)NC(=O)CNC(=O)[C@H](CCCNC(=N)N)NC2=O)C(=O)NCCCC[C@@H]2NC(=O)[C@@H](Cc3ccc(O)cc3)NC(=O)[C@H](CC(=O)O)NC(=O)CNC(=O)[C@H](CCCNC(=N)N)NC2=O)NC(=O)[C@@H](Cc2ccc(O)cc2)NC(=O)[C@H](CC(=O)O)NC(=O)CNC1=O [RGD4, E{E[c(RGDyK)]2}2] as the compound, how does the IC50 (integrin αvβ3; Example 2) read?
A: Its IC50 is 39.1 ± 5.5 nM.

Q: And the “fold higher integrin αvβ3 avidity than the RGD dimer” value (integrin αvβ3; Example 4)?
A: Its value is “about 3 fold”.

Q: What about the IC50 (integrin αvβ3; Example 4) of the same compound?
A: Its IC50 is 35 nM.

Q: What about the “receptor binding multivalent enhancement ratio (MVE)” value (integrin αvβ3; [3]) of the same compound?
A: The value was 5.9.

Q: What about the “anti-adhesion multivalent enhancement ratio (MVE)” value (U87MG cells; [3]) of the same compound?
A: The value was 8.4.

Q: What about the IC50 (U87MG cells) of the same compound?
A: The IC50 was 320 nM.

Q: Which IC50 (U87MG cells) does the source give for N=C(N)NCCC[C@@H]1NC(=O)[C@H](CCCCNC(=O)CC[C@H](N)C(=O)NCCCC[C@@H]2NC(=O)[C@@H](Cc3ccc(O)cc3)NC(=O)[C@H](CC(=O)O)NC(=O)CNC(=O)[C@H](CCCNC(=N)N)NC2=O)NC(=O)[C@@H](Cc2ccc(O)cc2)NC(=O)[C@H](CC(=O)O)NC(=O)CNC1=O [RGD2, E[c(RGDyK)]2, reference compound] here?
A: The IC50 was 700 nM.

Q: For CC(=O)O[C@H]1C(=O)[C@@]2(C)[C@H]([C@H](OC(=O)c3ccccc3)[C@]3(O)C[C@H](OC(=O)[C@H](OC(=O)CCC(=O)N[C@@H](CCC(=O)NCCCC[C@@H]4NC(=O)[C@@H](Cc5ccc(O)cc5)NC(=O)[C@H](CC(=O)O)NC(=O)CNC(=O)[C@H](CCCNC(=N)N)NC4=O)C(=O)NCCCC[C@@H]4NC(=O)[C@@H](Cc5ccc(O)cc5)NC(=O)[C@H](CC(=O)O)NC(=O)CNC(=O)[C@H](CCCNC(=N)N)NC4=O)[C@@H](NC(=O)c4ccccc4)c4ccccc4)C(C)=C1C3(C)C)[C@]1(OC(C)=O)CO[C@@H]1C[C@@H]2O [^3H-RGD2−PTX], which “tissue concentration, Blood” value ([1]; 4 h) is on record?
A: Its value is 101.7 ± 30.8 ng/g.

Q: What about the “tissue concentration, Heart” value ([1]; 4 h) of the same compound?
A: The value was 228.7 ± 29.8 ng/g.

Q: And the “tissue concentration, Intestine” value ([1]; 4 h)?
A: Its value is 127.8 ± 20.3 ng/g.

Q: What about the “tissue concentration, Kidney” value ([1]; 4 h) of the same compound?
A: The value was 1421.6 ± 289.8 ng/g.

Q: And the “tissue concentration, Liver” value ([1]; 4 h)?
A: Its value is 1252.9 ± 109.9 ng/g.

Q: And the “tissue concentration, Lung” value ([1]; 4 h)?
A: Its value is 300.4 ± 30.9 ng/g.

Q: And the “tissue concentration, MDA-MB-435 tumor” value ([1]; 4 h)?
A: The value was 357.5 ± 62.62 ng/g.

Q: What about the “tissue concentration, Muscle” value ([1]; 4 h) of the same compound?
A: The value was 125.1 ± 24.0 ng/g.

Q: What about the “tissue concentration, Skin” value ([1]; 4 h) of the same compound?
A: The value was 144.1 ± 15.9 ng/g.

Q: And the “tissue concentration, Spleen” value ([1]; 4 h)?
A: Its value is 322.3 ± 59.3 ng/g.

Q: And the “tissue concentration, Stomach” value ([1]; 4 h)?
A: Its value is 119.0 ± 16.7 ng/g.

Q: What about the tumor/muscle ratio ([1]; 4 h) of the same compound?
A: Its tumor/muscle ratio is 2.86.

Q: And the “tissue concentration, Liver” value ([1]; 4 h, listed as 3H-RGD2-PTX)?
A: Its value is 1252.9 ± 109.9 ng/g.

Q: What about the “tissue concentration, MDA-MB-435 tumor” value ([1]; 4 h, listed as 3H-RGD2-PTX) of the same compound?
A: The value was 357.5 ± 62.6 ng/g.

Q: What about the “tissue concentration, Blood” value ([1]; 24 h) of the same compound?
A: The value was 143.1 ± 18.0 ng/g.

Q: What about the “tissue concentration, Heart” value ([1]; 24 h) of the same compound?
A: Its value is 170.7 ± 18.6 ng/g.

Q: What about the “tissue concentration, Intestine” value ([1]; 24 h) of the same compound?
A: Its value is 52.1 ± 7.5 ng/g.

Q: And the “tissue concentration, Kidney” value ([1]; 24 h)?
A: Its value is 338.9 ± 22.1 ng/g.

Q: And the “tissue concentration, Liver” value ([1]; 24 h)?
A: Its value is 510.4 ± 28.9 ng/g.

Q: What about the “tissue concentration, Lung” value ([1]; 24 h) of the same compound?
A: Its value is 238.6 ± 75.6 ng/g.

Q: And the “tissue concentration, MDA-MB-435 tumor” value ([1]; 24 h)?
A: The value was 229.4 ± 50.4 ng/g.

Q: What about the “tissue concentration, Muscle” value ([1]; 24 h) of the same compound?
A: Its value is 81.2 ± 11.4 ng/g.

Q: And the “tissue concentration, Skin” value ([1]; 24 h)?
A: Its value is 87.2 ± 16.1 ng/g.

Q: What about the “tissue concentration, Spleen” value ([1]; 24 h) of the same compound?
A: The value was 228.7 ± 39.4 ng/g.

Q: And the “tissue concentration, Stomach” value ([1]; 24 h)?
A: The value was 71.63 ± 9.5 ng/g.

Q: And the tumor/muscle ratio ([1]; 24 h)?
A: The tumor/muscle ratio was 2.82.

Q: What about the “tissue concentration, MDA-MB-435 tumor” value ([1]; 24 h, listed as 3H-RGD2-PTX) of the same compound?
A: The value was 229.4 ± 50.4 ng/g.

Q: What about the “tissue concentration, Blood” value ([1]; 48 h) of the same compound?
A: The value was 225.4 ± 12.8 ng/g.

Q: And the “tissue concentration, Heart” value ([1]; 48 h)?
A: The value was 222.5 ± 16.2 ng/g.

Q: And the “tissue concentration, Intestine” value ([1]; 48 h)?
A: The value was 50.8 ± 9.5 ng/g.

Q: And the “tissue concentration, Kidney” value ([1]; 48 h)?
A: Its value is 281.8 ± 32.6 ng/g.

Q: And the “tissue concentration, Liver” value ([1]; 48 h)?
A: Its value is 545.3 ± 30.6 ng/g.

Q: And the “tissue concentration, Lung” value ([1]; 48 h)?
A: The value was 207.8 ± 48.2 ng/g.

Q: And the “tissue concentration, MDA-MB-435 tumor” value ([1]; 48 h)?
A: Its value is 148.8 ± 40.2 ng/g.

Q: And the “tissue concentration, Muscle” value ([1]; 48 h)?
A: Its value is 85.6 ± 28.0 ng/g.

Q: And the “tissue concentration, Skin” value ([1]; 48 h)?
A: The value was 66.0 ± 9.1 ng/g.

Q: And the “tissue concentration, Spleen” value ([1]; 48 h)?
A: The value was 227.9 ± 28.2 ng/g.

Q: What about the “tissue concentration, Stomach” value ([1]; 48 h) of the same compound?
A: The value was 71.7 ± 12.2 ng/g.

Q: What about the tumor/muscle ratio ([1]; 48 h) of the same compound?
A: Its tumor/muscle ratio is 1.74.

Q: And the “tissue concentration, MDA-MB-435 tumor” value ([1]; 48 h, listed as 3H-RGD2-PTX)?
A: The value was 148.8 ± 40.2 ng/g.

Q: And the tissue to tissue ratio at 4 h [2, 4]?
A: Its tissue to tissue ratio at 4 h is 0.25.

Q: What about the tissue to tissue ratio at 24 h [2, 4] of the same compound?
A: Its tissue to tissue ratio at 24 h is 0.68.

Q: And the tissue to tissue ratio at 48 h [2, 4]?
A: Its tissue to tissue ratio at 48 h is 0.53.

Q: And the tissue to tissue ratio at 4 h [2, 5]?
A: Its tissue to tissue ratio at 4 h is 0.29.

Q: What about the tissue to tissue ratio at 24 h [2, 5] of the same compound?
A: Its tissue to tissue ratio at 24 h is 0.45.

Q: What about the tissue to tissue ratio at 48 h [2, 5] of the same compound?
A: Its tissue to tissue ratio at 48 h is 0.27.

Q: And the tissue to tissue ratio at 4 h [2, 6]?
A: Its tissue to tissue ratio at 4 h is 2.86.

Q: What about the tissue to tissue ratio at 24 h [2, 6] of the same compound?
A: The tissue to tissue ratio at 24 h was 2.82.

Q: And the tissue to tissue ratio at 48 h [2, 6]?
A: Its tissue to tissue ratio at 48 h is 1.74.
